Reference: patent US6441131B1, “Peptides, method for assaying human pepsinogen II or human pepsin II, and assaying kit” (Ono Pharmaceutical Co., Ltd., priority 1997, dated 2002)
Non-standard residues stand in square brackets, D forms with d. Primed or numbered codes have the meaning given here. No end group written: not given here. *: point of attachment. DCHA″ = 3,5-dichloro-4-hydroxyaniline residue, Oc1c(Cl)cc(N*)cc1Cl; Phe(4-Cl) = N[C@@H](Cc1ccc(Cl)cc1)C(=O)O; Phe(4-I) = N[C@@H](Cc1ccc(I)cc1)C(=O)O; 2Nal = N[C@@H](Cc1ccc2ccccc2c1)C(=O)O; pNA = O=[N+]([O-])c1ccc(N*)cc1; NH(3-MeOPh) = COc1cccc(N*)c1; Nva = CCC[C@H](N)C(=O)O; Sar = CNCC(=O)O

Columns and labels:
human pepsin II = target: T1, human pepsin II (Homo sapiens, UniProt P20142); assay: Digesting of the peptide substrate by human pepsin II (assay by HPLC); type: biochemical; settings: for ration of digesting rate (pepsin II/ pepsin I): calculated from the HPLC digesting rates, pepsin II over pepsin I; for pepsin II digesting rate: peptide 0.5 mM, tartaric acid or glycine buffer pH2.0, 37° C., released amino acid derivative (II-A) by HPLC
T1 sequence (P20142 60-388): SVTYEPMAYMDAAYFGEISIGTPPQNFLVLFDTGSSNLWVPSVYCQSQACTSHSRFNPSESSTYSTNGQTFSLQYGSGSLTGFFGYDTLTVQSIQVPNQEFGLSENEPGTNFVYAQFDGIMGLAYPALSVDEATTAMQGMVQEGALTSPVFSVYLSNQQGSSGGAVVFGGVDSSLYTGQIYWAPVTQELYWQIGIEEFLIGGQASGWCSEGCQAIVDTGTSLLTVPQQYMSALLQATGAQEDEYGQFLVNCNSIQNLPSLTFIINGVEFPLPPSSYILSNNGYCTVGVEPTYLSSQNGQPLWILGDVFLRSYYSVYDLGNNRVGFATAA
Protocol: (§1) Tartaric acid buffer or glycine buffer (pH2.0) containing each peptide (0.5 mM) prepared in Examples 1 and 2(3) etc. (Examples in Table 3 described hereinafter).
(§2) An aqueous solution of human pepsin I or human pepsin II (0.01 mg/ml)
(§3) Enzyme solution I (0.1 ml) was added to Reagent (1.0 ml). After incubation of the mixture at 37° C. for 10, 30, 60 minutes, the mixture solution (0.3 ml) was collected. To the collected solution, 2N-NaOH (0.025 ml) was added to terminate the reaction. After addition of 2N-HCl (0.025 ml) to the mixture, protein was removed by the ultrafiltration. The assaying the amino acid derivatives of the formula (II-A) [drawing 19]
(§4) which was released after digesting by human pepsin in the obtained solution was carried out by HPLC using C18 column. The ratio of digesting rate of pepsin II/pepsin I was calculated according to the result from assay by HPLC. Such assay is carried out to confirm that a substrate was digested by pepsin I or pepsin II correctly and that the amino acid derivatives of the formula (II-A) were released.

human pepsin I = human pepsin I (Homo sapiens, UniProt P0DJD7); assay: Digesting of the peptide substrate by human pepsin I (assay by HPLC); type: biochemical; settings: peptide 0.5 mM, tartaric acid or glycine buffer pH2.0, 37° C., released amino acid derivative (II-A) by HPLC
human pepsin I, sequence (P0DJD7 63-388): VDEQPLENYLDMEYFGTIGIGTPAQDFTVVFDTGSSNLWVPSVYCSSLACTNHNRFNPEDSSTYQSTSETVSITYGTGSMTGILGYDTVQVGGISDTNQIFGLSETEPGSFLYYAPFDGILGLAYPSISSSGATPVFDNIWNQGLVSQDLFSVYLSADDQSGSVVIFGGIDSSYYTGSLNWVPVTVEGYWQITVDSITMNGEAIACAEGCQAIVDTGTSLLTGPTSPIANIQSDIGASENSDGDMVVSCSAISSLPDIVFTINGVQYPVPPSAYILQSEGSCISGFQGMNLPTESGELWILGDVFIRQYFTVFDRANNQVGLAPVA
Protocol: as §1, §2, §3, §4

Row | ration of digesting rate (pepsin II/ pepsin I) (human pepsin II) | pepsin II digesting rate (human pepsin II) [μM/min · 1 μg Enz] | pepsin I digesting rate (human pepsin I) [μM/min · 1 μg Enz] | Substance
1 | 889.7 | 5.56 | 0.0063 | 2(25): Q=Pro Gln Gln Met; 2-Naphthyl; R4=Me; (EE)m single bond; Z=p-NA (PQQM[2Nal]A-pNA; also: TFA salt)
2 | 161.4 | 40.55 | 0.2512 | 2(45): Q=Pro Thr Ser Glu; 2-Naphthyl; R4=Me; (EE)m single bond; Z=p-NA (PTSE[2Nal]A-pNA; also: TFMSA salt)
3 | 219.0 | 36.81 | 0.1681 | 2(61): Q=Ac Lys Asn Leu Ser Glu; 2-Naphthyl; R4=Me; (EE)m single bond; Z=p-NA (Ac-KNLSE[2Nal]A-pNA; also: TFMSA salt)
4 | 2065.1 | 4.23 | 0.0020 | 2(3): Q=Pro Gln Gln Ala; 4-I-Phenyl; R4=H; (EE)m single bond; Z=p-NA (PQQA[Phe(4-I)]G-pNA; also: TFA salt)
5 | 169.2 | 29.84 | 0.1763 | 2(63): Q=Pro Asn Asn Leu Ser Glu; 2-Naphthyl; R4=Me; (EE)m single bond; Z=p-NA (PNNLSE[2Nal]A-pNA; also: TFMSA salt)
6 | 562.6 | 10.94 | 0.0194 | 2(56): Q=Ser Leu Ser Glu; 2-Naphthyl; R4=Me; (EE)m single bond; Z=p-NA (SLSE[2Nal]A-pNA; also: TFMSA salt)
7 | 20.74 | 54.41 | 2.6240 | 2(78): Q=Leu Ser Glu; 2-Naphthyl; R4=Me; (EE)m=Leu; Z=p-NA (LSE[2Nal]AL-pNA; also: TFMSA salt)
8 | 104.4 | 3.50 | 0.0335 | 2(7): Q=Pro Gln Gln Ala; 4-Cl-Phenyl; R4=Me; (EE)m single bond; Z=p-NA (PQQA[Phe(4-Cl)]A-pNA; also: TFA salt)
9 | 29.87 | 70.66 | 2.3660 | 2(83): Q=Sar Leu Ser Glu; 2-Naphthyl; R4=Me; (EE)m=Ala; Z=m-ASD ([Sar]LSE[2Nal]AA-{NH(3-MeOPh)}; also: TFMSA salt)
10 | 105.48 | 15.77 | 0.1500 | 2(80): Q=Leu Ser Glu; 2-Naphthyl; R4=Me; (EE)m=Gly; Z=p-NA (LSE[2Nal]AG-pNA; also: TFMSA salt)
11 | 711.9 | 15.40 | 0.0216 | 2(34): Q=Pro Gln Asp Glu; 2-Naphthyl; R4=Me; (EE)m single bond; Z=p-NA (PQDE[2Nal]A-pNA; also: TFMSA salt)
12 | 176.7 | 48.39 | 0.2739 | 2(54): Q=Lys Leu Ser Glu; 2-Naphthyl; R4=Me; (EE)m single bond; Z=p-NA (KLSE[2Nal]A-pNA; also: TFMSA salt)
13 | 402.3 | 25.41 | 0.0632 | 2(33): Q=Pro Gln Glu Glu; 2-Naphthyl; R4=Me; (EE)m single bond; Z=p-NA (PQEE[2Nal]A-pNA; also: TFMSA salt)
14 | 410.2 | 3.85 | 0.0094 | 2(14): Q=Ac Lys Pro Gln Gln Ala; 4-I-Phenyl; R4=Me; (EE)m single bond; Z=p-NA (Ac-KPQQA[Phe(4-I)]A-pNA; also: TFA salt)
15 | 1094.8 | 8.95 | 0.0082 | 2(16): Q=Asn Pro Gln Gln Ala; 4-I-Phenyl; R4=Me; (EE)m single bond; Z=p-NA (NPQQA[Phe(4-I)]A-pNA; also: TFA salt)
16 | 621.0 | 61.96 | 0.0998 | 2(53): Q=Gln Leu Ser Glu; 2-Naphthyl; R4=Me; (EE)m single bond; Z=p-NA (QLSE[2Nal]A-pNA; also: TFMSA salt)
17 | 222.6 | 12.87 | 0.0578 | 2(22): Q=Pro Gln Gln Asn; 2-Naphthyl; R4=Me; (EE)m single bond; Z=p-NA (PQQN[2Nal]A-pNA; not fully specified)

The remaining lines, values behind:

Row | Substance | ration of digesting rate (pepsin II/ pepsin I) (human pepsin II) | pepsin II digesting rate (human pepsin II) [μM/min · 1 μg Enz] | pepsin I digesting rate (human pepsin I) [μM/min · 1 μg Enz]
18 | 2(24): Q=Pro Gln Gln Gly; 2-Naphthyl; R4=Me; (EE)m single bond; Z=p-NA (PQQG[2Nal]A-pNA; also: TFA salt) | 2081.6 | 12.06 | 0.0058
19 | 2(11): Q=Pro Gln Gln Ala; 2-Naphthyl; R4=n-Pr; (EE)m single bond; Z=p-NA (PQQA[2Nal][Nva]-pNA; also: TFA salt) | 174.9 | 4.10 | 0.0235
20 | Nα-Me-GlySerGlyAla(2-Naph)AlaAla-DCHA.TFMSA ([Sar]SG[2Nal]AA-{DCHA″}; also: TFMSA salt) [Example 2(84)] | 119.5 | 33.07 | 0.2767
21 | ProLeuSerGluAla(2-Naph)Ala-pNA (PLSE[2Nal]A-pNA) [Example 1] | 198.2 | 55.40 | 0.2795
22 | 2(39): Q=Pro Met Ser Glu; 2-Naphthyl; R4=Me; (EE)m single bond; Z=p-NA (PMSE[2Nal]A-pNA; also: TFMSA salt) | 201.1 | 45.79 | 0.2277
23 | 2(18): Q=Ala Pro Gln Gln Ala; 4-I-Phenyl; R4=Me; (EE)m single bond; Z=p-NA (APQQA[Phe(4-I)]A-pNA; also: TFA salt) | 757.0 | 9.20 | 0.0122
24 | 2(36): Q=Pro Asn Ser Glu; 2-Naphthyl; R4=Me; (EE)m single bond; Z=p-NA (PNSE[2Nal]A-pNA; also: TFMSA salt) | 193.5 | 21.22 | 0.1096
25 | 2(23): Q=Pro Gln Gln Gln; 2-Naphthyl; R4=Me; (EE)m single bond; Z=p-NA (PQQQ[2Nal]A-pNA; also: TFA salt) | 308.8 | 5.90 | 0.0191
26 | 2(51): Q=Gly Leu Ser Glu; 2-Naphthyl; R4=Me; (EE)m single bond; Z=p-NA (GLSE[2Nal]A-pNA; also: TFMSA salt) | 333.8 | 54.43 | 0.1631
27 | Nα-Me-GlyLeuSerGluAla(2-Naph)Ala-pNA.TFMSA ([Sar]LSE[2Nal]A-pNA; also: TFMSA salt) [Example 2(70)] | 158.4 | 49.56 | 0.3128
28 | 2(57): Q=Thr Leu Ser Glu; 2-Naphthyl; R4=Me; (EE)m single bond; Z=p-NA (TLSE[2Nal]A-pNA; also: TFMSA salt) | 660.9 | 18.78 | 0.0284
